From US5336488A, “Method of treating or preventing mastitis in animals with involuting mammary glands by administering recombinant cytokines” (American Cyanamid Company, priority 1992, dated 1994)

Assays:
[1] = system: milk PMNs; assay: Quantity of milk PMNs after intramammary infusion; format: in vivo, bovine (Holstein dairy cattle)
Procedure: (§1) FIGS. 2(A-I): Quantity and Quality of Milk PMNs from Mammary Glands Infused with r-BolL-1 or r-BoIL-2
(§2) A total of 12 mammary glands from normal lactating Holstein dairy cattle are infused through the teat canal with either 200 μg of r-BoIL-1; 2 mg of r-BoIL-2; or 1 mg of r-BoGM-CSF. Milk samples are collected and the number of viable somatic cells counted on a Coulter® ZM with a C256 Channelyzer. The data is expressed as the somatic cell count per ml of milk sampled at 16, 40, 64 and 88 hours after infusion for r-BoIL-1 (A); r-BoIL-2 (D); or r-BoGM-CSF(G). The total percentage of phagocytosis by milk PMNs (polymorphonuclear cells) is quantitatively measured by flow cytometry by measuring the percentage of cells ingesting 2μ fluorescent beads for r-BoIL-1 (B); r-BoIL-2(E); or r-BoGM-CSF(H). The total population is first gated by forward angle light scatter, FALS and 90° light scatter to only consider viable polymorphonuclear cells. The induction of superoxide after PMA (520.eta.g)stimulation is also monitored using a whole cell cytochrome-c reduction assay, for r-BoIL-1 (C); r-BoIL-2(F); or r-BoGM-CSF(I). PMNs from untreated milk could not be induced to produce superoxide, while peripheral blood PMNs are inducible in a range of 5-15 .eta.M O2 /Minute/10^7 PMNs.

[2] = system: S. aureus; assay: Prevention of S. aureus mastitis in lactating animals; format: in vivo, S. aureus (in lactating Holstein dairy cattle); details: for % CONTROL / % INFECTED: vs Control 1; for protection from subsequent S. aureus challenge: intramammary infusion, Table 1; for most efficacious time of administration for protective effect: relative to S. aureus challenge
Description: This maximal protection correlates with the peak quantitative biological response for this cytokine. […] This also correlates with the peak quantitative biological response of this cytokine and also marks the qualitative increase in phagocytosis and inducible superoxide, FIG. 2D & 2E.
^1 Single intramammary infusion administered after the PM milking. A
total of 100 mammary glands from 22 different lactating Holstein dairy
^2 All glands are free of bacteria on 5 successive samples after the
AM milking prior to the initial infusion.
^3 The total dose in mass of protein is indicated. The biological
^4 Infusions of cytokines were administerd simultaneously with S.
aureus 0, 24 or 48 hours proir to challenge with 30-200 CFUs of S.
^5 Individual quarters are considered cured if the milk samples remai
free of S. aureus. for 14 days after intramammary challenge with of S.
^6 The % Control = (1 - {% Infected After Therapy divided by Infected
in Control Quarters)} × 100.
*Quarters in Control 1 are challenged with 250 CFUs of S. aureus..
Quarters in Control 2 are challenged with 30 CFUs of S. aureus.

[3] = system: milk PMNs; assay: Phagocytosis of fluorescent beads by milk PMNs (flow cytometry) after intramammary infusion; format: in vivo, bovine (Holstein dairy cattle)
Procedure: as §1, §2

[4] = Specific biological activity of recombinant cytokine protein; details: for in vitro specific bioactivities: r-BoIL-1 compared with r-BoIL-2; for biological activity: mass of protein
[5] = system: S. aureus; assay: Therapy of established S. aureus mastitis infections; format: in vivo, S. aureus (in lactating Holstein dairy cattle); details: for most efficacious dosing: compared with a single bolus; for dose response of therapeutic efficacy / therapeutic efficacy in infected mammary glands: intramammary infusion
Procedure: The percentage of quarters clearing the infection for greater than 1 milking (RESPONDING), as compared to the percentage of quarters which actually cure their infections (CURE) is a measure of the failure of the host cells to kill the bacteria. The relapse rate is the greatest for r-BoIL-2 (combined relapse rate of 40% for the 10 mg dose X's 3). […] Furthermore, if activation of the host cells is effective, as indicated by the r-BoIL-2 and r-BoGM-CSF, then a combination therapy with r-BoIL-1 or antibiotics is useful.
^1 S. aureus infections are established 2-3 weeks prior to treatment.
Treatments are administered after the AM or PM milking by 1-3 successive
intramammary infusions. A total of 120 mammary glands from 28 different
lactating Holstein dairy cattle are used. Recombinant bovine
interleukin1(IL-1) and interleukin2(IL-2) are obtained from IMMUNEX Corp.
Seattle, WA. Na cephapirin is prepared is PBS; and CefaLak ®
(BristolMeyers) is used according to package# insert instructions.
^2 Cytokines are infused intramammary through the teat canal after th
PM milking at the indicated intervals. The total dose is delivered in a
total volume of 10 ml of sterile PBS. The biological activity of rBoIL-1
and rBoIL-2 is 32,000 Units/μg and 22,000 Units/μg, respectively. A
total dose per infusion 200 mg of Na cephapirin and CefaLak ® is
administered after consecutive PM and AM milkings, according to described
^3 The % RESPONDING = quarters which transiently (> 1 milking) are
free of S. aureus divided by the total number of quarters treated.
^4 The % CURED QUARTERS = # of quarters which clear their infection
and remain free of S. aureus divided by the total number of quarters
treated. Infections are considered to have relapsed if there are > 1 CFUs
from three consecutive AM milkings, or > 20 CFUs for two consecutive afte
therapy at anytime during the 14 day monitoring period.
^5 The % RELAPSE = [1 - {[…]}] ×

[6] = system: milk PMNs; assay: Inducible superoxide of milk PMNs after PMA stimulation (cytochrome-c reduction); format: in vivo, bovine (Holstein dairy cattle)
Procedure: as §1, §2

[7] = IL-2 multiple, 2 mg, interval 24 hrs
[8] = IL-2 multiple, 10 mg, interval 24 hrs
[9] = IL-1 multiple, 10 μg, interval 24 hrs
[10] = IL-1 multiple, 10 μg, interval 48 hrs
[11] = IL-1 multiple, 200 μg, interval 24 hrs
[12] = IL-1 multiple, 200 μg, interval 48 hrs

B1: recombinant bovine interleukin-2 (protein, UniProt P05016 21-155, looked up)
Interleukin-2: APTSSSTGNTMKEVKSLLLDLQLLLEKVKNPENLKLSRMHTFDFYVPKVNATELKHLKCLLEELKLLEEVLNLAPSKNLNPREIKDSMDNIKRIVLELQGSETRFTCEYDDATVNAVEFLNKWITFCQSIYSTMT
notes: recombinant bovine interleukin-2, obtained from IMMUNEX Corp. Seattle, WA
In the case of B1, the “milk PMNs (quantity)” value ([1]; 2 mg, FIG. 2D) is reported as “quantitative increase in milk PMNs”, the “milk PMNs (quantity), decline” value ([1]; after 72 hours, 2 mg, FIG. 2D) is reported as “diminishes after 72 hours, to control levels” and the “% CONTROL” value ([2]; 1 mg, 0 hrs) is reported as 23%. For the same molecule, the “% INFECTED” value ([2]; 1 mg, 0 hrs) was 77%, the “% CONTROL” value ([2]; 1 mg, -24 hrs) was 89% and the “% INFECTED” value ([2]; 1 mg, -24 hrs) was 11%. The “% CONTROL” value ([2]; 1 mg, -48 hrs) was 63%, the “% INFECTED” value ([2]; 1 mg, -48 hrs) was 37% and the “protection from subsequent S. aureus challenge” value [2] was “capable of protecting the host from subsequent S. aureus challenge”. The “most efficacious time of administration for protective effect” value [2] was “most efficacious if administered 48 hours prior to S. aureus challenge”, the percent phagocytosis ([3]; by 112 hrs, 2 mg r-BoIL-2, FIG. 2E) was “still above the pre-treatment level” and the “average number of ingested beads per phagocytic cell” value ([3]; r-BoIL-2, upon activation) was “increased upon activation”. For the same molecule, the “phagocytosis increase over resident PMNs” value ([3]; within 40-64 hours, 2 mg r-BoIL-2, FIG. 2E) was 2-3 fold, the “in vitro specific bioactivities” value [4] was “equivalent” and the biological activity [4] was 22,000 Units/μg. For the same molecule, the biological activity ([4]; Table 3 footnote 3) was 22,000 Units μg, the combined relapse rate ([5]; 10 mg dose X's 3) was 40% and the “% CURES” value [5, 7] was 9%. The “% RELAPSE” value [5, 7] was 84%, the “% RESPONSE” value [5, 7] was 55% and the “% CURES” value [5, 8] was 25%. For the same molecule, the “% RELAPSE” value [5, 8] was 57%, the “% RESPONSE” value [5, 8] was 58% and the “% RESPONSE” value ([5]; IL-2 multiple, 10 mg, interval 48 hrs) was 33%. For the same molecule, the “% CURES” value ([5]; IL-2 single, 2 μg) was 0%, the “% RESPONSE” value ([5]; IL-2 single, 2 μg) was 0% and the “% CURES” value ([5]; IL-2 single, 10 μg) was 0%. The “% RELAPSE” value ([5]; IL-2 single, 10 μg) was 100%, the “% RESPONSE” value ([5]; IL-2 single, 10 μg) was 20% and the “% CURES” value ([5]; IL-2 single, 30 μg) was 10%. The “% RELAPSE” value ([5]; IL-2 single, 30 μg) was 0%, the “% RESPONSE” value ([5]; IL-2 single, 30 μg) was 10% and the most efficacious dosing [5] was “most efficacious if doses are administered over 3 consecutive milkings”. The “dose response of therapeutic efficacy” value [5] was “dose response therapeutic efficacy”, the “therapeutic efficacy in infected mammary glands” value [5] was “effectively treated” and the “inducible superoxide, duration” value ([6]; 2 mg r-BoIL-2, FIG. 2F) was “remains throughout the 96 hours of sampling”. The inducible superoxide ([6]; 2 mg r-BoIL-2, vs resident PMNs, FIG. 2F) was “significantly increased over the resident PMNs”.

B2: recombinant bovine interleukin-1 (protein, UniProt P09428 114-266, looked up)
Interleukin-1 beta: APVQSIKCKLQDREQKSLVLASPCVLKALHLLSQEMNREVVFCMSFVQGEERDNKIPVALGIKDKNLYLSCVKKGDTPTLQLEEVDPKVYPKRNMEKRFVFYKTEIKNTVEFESVLYPNWYISTSQIEERPVFLGHFRGGQDITDFRMETLSP
notes: recombinant bovine interleukin-1, obtained from IMMUNEX Corp. Seattle, WA
In the case of B2, the “increase over the pre-treatment number of PMNs” value ([1]; 16 hours, 200 μg, FIG. 2A) is reported as 150 ×, the “increase over the pre-treatment number of PMNs” value ([1]; 40 hours, 200 μg, FIG. 2A) is reported as 20 × and the “number of PMNs” value ([1]; by 112 hours, 200 μg, FIG. 2A) is reported as “back to normal levels by 112 hours”. The “% CONTROL” value ([2]; 1 μg, 0 hrs) was 87%, the “% INFECTED” value ([2]; 1 μg, 0 hrs) was 13% and the “% CONTROL” value ([2]; 1 μg, -24 hrs) was 100%. The “% INFECTED” value ([2]; 1 μg, -24 hrs) was 0%, the “% CONTROL” value ([2]; 1 μg, -48 hrs) was 78% and the “% INFECTED” value ([2]; 1 μg, -48 hrs) was 22%. The “protection from subsequent S. aureus challenge” value [2] was “capable of protecting the host from subsequent S. aureus challenge”, the “most efficacious time of administration for protective effect” value [2] was “most efficacious if administered 24 hours prior to S. aureus challenge” and the phagocytosis ([3]; 200 μg r-BoIL-1, FIG. 2B) was “unaffected”. For the same molecule, the “in vitro specific bioactivities” value [4] was “equivalent”, the biological activity [4] was 32,000 Units/μg and the “% CURES” value [5, 9] was 8%. For the same molecule, the “% RELAPSE” value [5, 9] was 90%, the “% RESPONSE” value [5, 9] was 77% and the “% CURES” value [5, 10] was 0%. For the same molecule, the “% RELAPSE” value [5, 10] was 100%, the “% RESPONSE” value [5, 10] was 39% and the “% CURES” value [5, 11] was 7%. For the same molecule, the “% RELAPSE” value [5, 11] was 91%, the “% RESPONSE” value [5, 11] was 79% and the “% CURES” value [5, 12] was 29%. For the same molecule, the “% RELAPSE” value [5, 12] was 54%, the “% RESPONSE” value [5, 12] was 64% and the “% CURES” value ([5]; IL-1 single, 10 μg) was 11%. The “% RELAPSE” value ([5]; IL-1 single, 10 μg) was 0%, the “% RESPONSE” value ([5]; IL-1 single, 10 μg) was 11% and the “% CURES” value ([5]; IL-1 single, 200 μg) was 0%. The “% RELAPSE” value ([5]; IL-1 single, 200 μg) was 100%, the “% RESPONSE” value ([5]; IL-1 single, 200 μg) was 20% and the “% CURES” value ([5]; IL-1 single, 600 μg) was 0%. The “% RELAPSE” value ([5]; IL-1 single, 600 μg) was 100%, the “% RESPONSE” value ([5]; IL-1 single, 600 μg) was 10% and the relapse rate ([5]; as quoted in text of Example 5) was 54%. For the same molecule, the most efficacious dosing [5] was “most efficacious if doses are administered over 3 consecutive milkings”, the “dose response of therapeutic efficacy” value [5] was “dose response therapeutic efficacy” and the “therapeutic efficacy in infected mammary glands” value [5] was “effectively treated”. The “inducible superoxide upon phorbol ester stimulation” value ([6]; 200 μg r-BoIL-1, vs resident PMNs, FIG. 2C) was “significantly increased over the resident PMNs”.
